Laboratory results reported in patent US20240261333A1 (published 2024).

T1: S100A7 (human, UniProt P31151 2-101)
T1 construct: also called NP_002954.2
T1 sequence (looked up): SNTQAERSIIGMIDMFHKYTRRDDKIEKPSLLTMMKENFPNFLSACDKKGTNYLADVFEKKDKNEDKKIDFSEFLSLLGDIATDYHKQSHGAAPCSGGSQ

T2: IMMT (human, UniProt Q16891-4 34-757, limits assumed)
T2 construct: also called NP_001093639.1 (+3)
T2 sequence (looked up): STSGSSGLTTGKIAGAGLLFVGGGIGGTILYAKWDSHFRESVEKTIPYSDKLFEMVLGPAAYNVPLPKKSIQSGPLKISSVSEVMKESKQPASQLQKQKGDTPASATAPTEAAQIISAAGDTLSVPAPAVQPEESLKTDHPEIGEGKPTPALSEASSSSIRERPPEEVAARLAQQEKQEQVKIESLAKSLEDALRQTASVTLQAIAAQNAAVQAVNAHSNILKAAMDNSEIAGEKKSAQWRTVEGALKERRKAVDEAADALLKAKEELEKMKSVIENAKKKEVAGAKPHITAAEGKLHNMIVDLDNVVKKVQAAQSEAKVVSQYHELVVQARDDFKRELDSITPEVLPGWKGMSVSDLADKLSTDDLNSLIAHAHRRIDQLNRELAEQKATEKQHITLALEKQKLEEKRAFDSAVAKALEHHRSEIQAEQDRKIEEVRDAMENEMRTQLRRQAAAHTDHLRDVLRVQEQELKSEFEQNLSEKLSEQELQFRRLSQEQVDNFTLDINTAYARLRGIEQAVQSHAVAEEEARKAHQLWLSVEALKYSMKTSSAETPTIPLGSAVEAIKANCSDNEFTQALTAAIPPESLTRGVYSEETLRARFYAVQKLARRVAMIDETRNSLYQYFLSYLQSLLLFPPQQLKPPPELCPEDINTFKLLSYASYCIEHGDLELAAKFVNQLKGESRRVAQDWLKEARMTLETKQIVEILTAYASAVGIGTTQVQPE

T3: JUP (human, UniProt P14923 1-745)
T3 construct: also called NP_001339702.1
T3 sequence (looked up): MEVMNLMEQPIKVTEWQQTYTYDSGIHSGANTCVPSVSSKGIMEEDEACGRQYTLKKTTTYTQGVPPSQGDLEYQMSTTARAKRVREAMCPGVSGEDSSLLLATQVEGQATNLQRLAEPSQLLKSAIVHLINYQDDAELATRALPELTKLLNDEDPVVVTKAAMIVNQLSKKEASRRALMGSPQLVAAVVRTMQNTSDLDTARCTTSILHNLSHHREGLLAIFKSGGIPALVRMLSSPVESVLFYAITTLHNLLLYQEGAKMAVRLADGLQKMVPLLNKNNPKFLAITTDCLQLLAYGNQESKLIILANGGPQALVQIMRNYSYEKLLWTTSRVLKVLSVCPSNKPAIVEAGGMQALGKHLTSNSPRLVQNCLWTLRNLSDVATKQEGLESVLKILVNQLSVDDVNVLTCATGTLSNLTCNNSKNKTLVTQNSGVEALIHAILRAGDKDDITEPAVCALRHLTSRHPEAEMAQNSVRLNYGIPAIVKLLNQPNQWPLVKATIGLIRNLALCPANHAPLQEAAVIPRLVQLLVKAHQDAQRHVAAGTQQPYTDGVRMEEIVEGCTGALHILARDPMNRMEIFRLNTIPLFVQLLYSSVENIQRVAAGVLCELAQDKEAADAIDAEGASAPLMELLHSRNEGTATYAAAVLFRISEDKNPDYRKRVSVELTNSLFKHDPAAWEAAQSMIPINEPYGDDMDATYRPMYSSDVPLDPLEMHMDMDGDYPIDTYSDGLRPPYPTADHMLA


Assays:
Experiment in all cases: co-IP with anti-FLAG, C-FLAG B3GNT2, mass spectrometry
[1] = target: T1, S100A7
[2] = target: T2, IMMT
[3] = target: T3, JUP

Row | Binder | co-IP mass spectrometry count [1] | co-IP mass spectrometry count [2] | co-IP/MS count, C-term flag [3]
1 | C-terminal FLAG tagged B3GNT2 (enzyme, human, UniProt Q9NY97 1-397, looked up, FLAG-tagged ORF overexpressed in cells; pulled down from lysate with mouse anti-FLAG; also called C-FLAG B3GNT2; C-term flag; not shown: C-terminal FLAG tag) MSVGRRRIKLLGILMMANVFIYFIMEVSKSSSQEKNGKGEVIIPKEKFWKISTPPEAYWNREQEKLNRQYNPILSMLTNQTGEAGRLSNISHLNYCEPDLRVTSVVTGFNNLPDRFKDFLLYLRCRNYSLLIDQPDKCAKKPFLLLAIKSLTPHFARRQAIRESWGQESNAGNQTVVRVFLLGQTPPEDNHPDLSDMLKFESEKHQDILMWNYRDTFFNLSLKEVLFLRWVSTSCPDTEFVFKGDDDVFVNTHHILNYLNSLSKTKAKDLFIGDVIHNAGPHRDKKLKYYIPEVVYSGLYPPYAGGGGFLYSGHLALRLYHITDQVHLYPIDDVYTGMCLQKLGLVPEKHKGFRTFDIEEKNKNNICSYVDLMLVHSRKPQEMIDIWSQLQSAHLKC | 5 | 26 | 
2 | C-terminal FLAG tagged B3GNT2 (enzyme, human, UniProt Q9NY97 1-397, looked up, FLAG-tagged ORF overexpressed in A375 cells; pulled down from the lysate with mouse anti-FLAG; also called C-FLAG B3GNT2; C-term flag; not shown: C-terminal FLAG tag) MSVGRRRIKLLGILMMANVFIYFIMEVSKSSSQEKNGKGEVIIPKEKFWKISTPPEAYWNREQEKLNRQYNPILSMLTNQTGEAGRLSNISHLNYCEPDLRVTSVVTGFNNLPDRFKDFLLYLRCRNYSLLIDQPDKCAKKPFLLLAIKSLTPHFARRQAIRESWGQESNAGNQTVVRVFLLGQTPPEDNHPDLSDMLKFESEKHQDILMWNYRDTFFNLSLKEVLFLRWVSTSCPDTEFVFKGDDDVFVNTHHILNYLNSLSKTKAKDLFIGDVIHNAGPHRDKKLKYYIPEVVYSGLYPPYAGGGGFLYSGHLALRLYHITDQVHLYPIDDVYTGMCLQKLGLVPEKHKGFRTFDIEEKNKNNICSYVDLMLVHSRKPQEMIDIWSQLQSAHLKC |  |  | 43
